The values that follow come from patent US20220227811A1.

Values joined by “and” are separate entries in the source; they are usually repeats but may differ in a detail not shown here. Identical values can stand only once. Starred links: 1 amine or outer side, 2 acyl side, 3 side chain; linkers in the order of their positions; H or OH if unused. Positions of bridges follow the written chain, without caps; N, C: chain ends. Non-standard residues stand in square brackets, D forms with d. Chains are numbered I, II in the order given. No end group written: not given here. *: point of attachment. TATA = O=C(CC[*:1])N1CN(C(=O)CC[*:2])CN(C(=O)CC[*:3])C1; d1Nal = N[C@H](Cc1cccc2ccccc12)C(=O)O; Hyp = O=C(O)[C@@H]1C[C@@H](O)CN1; hArg = N=C(N)NCCCC[C@H](N)C(=O)O; tBuAla = CC(C)(C)C[C@H](N)C(=O)O; Nle = CCCC[C@H](N)C(=O)O; Pent4ynoyl = C#CCCC(=O)*

Experiment [1] has as its target human EphA2 protein (human), P29317. In words: SPR (Biacore), biotinylated human EphA2 captured on a streptavidin chip, BCY13272 as analyte, 1:1 fit (Scrubber). (Surface plasmon resonance follows binding to a sensor surface in real time, without labels.)
The target is the same in experiment [2]. Briefly: SPR (Biacore T200), biotinylated EphA2 captured on a streptavidin chip, peptide as analyte, 1:1 fit.
The target in experiment [3] is Recombinant human CD137 (R&D systems) (human), Q07011. Briefly: SPR (Biacore), biotinylated human CD137 captured on a streptavidin chip, BCY13272 as analyte, 1:1 fit (Scrubber).
Sequence of Recombinant human CD137 (R&D systems) (human), Q07011 (Q07011 24-186 limits assumed): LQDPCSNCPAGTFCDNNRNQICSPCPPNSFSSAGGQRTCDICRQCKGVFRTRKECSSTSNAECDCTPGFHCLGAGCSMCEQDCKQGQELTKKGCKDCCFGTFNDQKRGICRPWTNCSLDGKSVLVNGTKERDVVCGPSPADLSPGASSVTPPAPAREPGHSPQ
Experiment [4] deals with CD137 on Jurkat reporter cells (Promega CD137 luciferase reporter assay, kit CS196005), Q07011. In words: cell-based or functional assay.
Sequence of CD137 on Jurkat reporter cells (Promega CD137 luciferase reporter assay, kit CS196005), Q07011 (Q07011 24-255 limits assumed): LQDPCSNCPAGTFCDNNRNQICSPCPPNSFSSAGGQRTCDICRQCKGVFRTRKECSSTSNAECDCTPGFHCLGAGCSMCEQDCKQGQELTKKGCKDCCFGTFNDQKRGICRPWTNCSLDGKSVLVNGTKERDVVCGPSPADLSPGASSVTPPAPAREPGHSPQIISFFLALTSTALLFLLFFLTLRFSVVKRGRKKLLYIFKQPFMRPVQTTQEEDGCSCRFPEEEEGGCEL
The target of experiment [5] is CD137 on human PBMCs (anti-CD3 stimulated, co-culture assay) (human), Q07011. In words: cell-based or functional assay.
Sequence of CD137 on human PBMCs (anti-CD3 stimulated, co-culture assay) (human), Q07011 (Q07011 24-255): as the sequence (Q07011 24-255 limits assumed) above

Sequence of human EphA2 protein (human), P29317 (P29317 25-534 limits assumed): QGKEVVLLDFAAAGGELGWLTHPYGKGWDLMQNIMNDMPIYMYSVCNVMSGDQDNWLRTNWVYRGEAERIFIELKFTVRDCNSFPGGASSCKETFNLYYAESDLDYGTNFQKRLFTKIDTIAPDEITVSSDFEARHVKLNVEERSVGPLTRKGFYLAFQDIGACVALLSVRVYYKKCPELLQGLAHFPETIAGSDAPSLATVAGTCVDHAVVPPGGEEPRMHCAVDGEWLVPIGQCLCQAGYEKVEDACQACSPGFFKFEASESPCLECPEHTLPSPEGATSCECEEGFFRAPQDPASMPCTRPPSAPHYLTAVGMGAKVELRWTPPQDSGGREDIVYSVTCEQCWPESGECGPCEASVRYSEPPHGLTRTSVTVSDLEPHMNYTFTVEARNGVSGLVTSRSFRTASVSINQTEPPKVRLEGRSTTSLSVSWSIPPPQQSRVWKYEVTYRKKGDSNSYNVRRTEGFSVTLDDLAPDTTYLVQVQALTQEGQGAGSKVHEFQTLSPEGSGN

B1: EphA2/CD137 heterotandem bicyclic peptide complex BCY13272 (peptide)
peptide 1: A[hArg]DC[Hyp]LVNPLCLEP[d1Nal]WTC
peptide 2: Ac-C[tBuAla]PE[dK](Pent4ynoyl)PYCFADPY[Nle]CA
modifications: linker I:4-I:11-I:18, II:1-II:8-II:15 via TATA; not fully specified (N-terminus, bridges); also: chain 1 N-terminus coupled to N-(acid-PEG3)-N-bis(PEG3-azide) linker, D-Lys(PYA) of chain 2 clicked (triazole) to linker azide arm, complex has a second BCY8928 copy not listed as a chain
Consider B1, for which, in experiment [1], the koff – broadly, the rate constant with which the complex falls apart – is 0.00102 s⁻¹ and the kon – broadly, the rate constant with which the complex forms – came to 502000 M⁻¹ s⁻¹. In addition, in experiment [2], the Kd (commonly the equilibrium constant for the complex coming apart) was determined as 2 nM. In experiment [3], the dissociation constant Kd was under 0.0331 nM, the koff is under 1e-05 s⁻¹ and the kon worked out at 302000 M⁻¹ s⁻¹. Further, in experiment [4], the EC50 (nM), CD137 luciferase reporter assay, co-culture with EphA2 cell line A549 is 0.107 nM and 0.132 nM and 0.147 nM; the EC50 (nM), CD137 luciferase reporter assay, co-culture with EphA2 cell line HT-29 was 0.567 nM and 0.187 nM and 0.205 nM; the EC50 (nM), CD137 luciferase reporter assay, co-culture with EphA2 cell line PC-3 was 0.245 nM and 0.0805 nM and 0.0898 nM; the Emax (fold induction over background), CD137 luciferase reporter assay, co-culture with EphA2 cell line A549 was 23.6 fold and 30.2 fold and 25.7 fold. Also, in experiment [4], the Emax (fold induction over background), CD137 luciferase reporter assay, co-culture with EphA2 cell line HT-29 is 36.5 fold and 26 fold and 36.4 fold; the Emax (fold induction over background), CD137 luciferase reporter assay, co-culture with EphA2 cell line PC-3 was 44.5 fold and 44.2 fold and 53 fold; the Geo mean EC50/cell line, CD137 luciferase reporter assay, co-culture with EphA2 cell line A549 worked out at 0.127 nM; the Geo mean EC50/cell line, CD137 luciferase reporter assay, co-culture with EphA2 cell line HT-29 amounted to 0.279 nM. Further, the Geo mean EC50/cell line, CD137 luciferase reporter assay, co-culture with EphA2 cell line PC-3 in experiment [4] worked out at 0.117 nM. In experiment [5], this molecule had an EC50 (nM) of IL-2 cytokine secretion, human PBMC co-culture with HT-1080 cells (N = 4) of 0.55 nM and an EC50 (nM) of IL-2 cytokine secretion, human PBMC co-culture with MC38 cells (N = 5) of 0.79 nM.
